Data published in US20260258139A1 (BRIGHAM AND WOMEN S HOSPITAL, published 2026).
Residue numbers refer to the chain shown, from its start.

T1: human KLRB1 expressed on CHO-hum-KLRB1 cells (human, UniProt Q12918 1-225)
T1 sequence: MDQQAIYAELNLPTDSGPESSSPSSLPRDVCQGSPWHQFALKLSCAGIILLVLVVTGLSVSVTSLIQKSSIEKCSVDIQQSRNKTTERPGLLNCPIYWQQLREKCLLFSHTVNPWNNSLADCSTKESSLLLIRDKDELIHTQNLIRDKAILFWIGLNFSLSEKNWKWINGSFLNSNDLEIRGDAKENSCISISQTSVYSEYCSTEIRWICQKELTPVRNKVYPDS

T2: human KLRB1 extracellular domain (ECD), amino acids 67-225 of human KLRB1 protein (human, UniProt Q12918 67-225)
T2 construct: Soluble analyte in SPR; also called KLRB1 ECD; CD161 ECD
T2 sequence: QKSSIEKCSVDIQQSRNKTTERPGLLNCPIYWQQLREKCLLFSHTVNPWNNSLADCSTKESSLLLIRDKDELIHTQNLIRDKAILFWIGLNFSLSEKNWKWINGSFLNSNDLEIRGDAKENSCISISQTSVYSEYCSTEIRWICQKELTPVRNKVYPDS

B1: 10A3D6hum2.2 (antibody, human IgG1, V domains shown)
VH: QVQLVQSGAEVKKPGASVKVSCKASGYSFTGYTMNWVRQAPGQNLEWIGLINPNTGGTYYNQKFKDRVTLTVDTSISTAYMELSRLRSDDTAVYYCARLGDNYRGYFDSWGQGTTVTVSS
VL: DIQLTQSPSFLSASVGDRVTITCKASQDVGTAVVWYQQKPGKAPKLLIDWASIRHTGVPSRFSGSGSGTEFTLTISSLQPEDFADYFCQQYSTYLYTFGGGTKLEIK
notes: tested as human IgG1-kappa produced in CHO cells
B2: antibody 13.2 (antibody, human IgG1, kappa, V domains shown)
VH: B1 VH with S28T, N44G, I48M, N54S, L70M, V72R, S109Y
VL: EIVMTQSPATLSVSPGERATLSCRASQDVGTAVVWYQQKPGQAPRLLIDWASIRHTGIPARFSGSGSGTEFTLTISSLQSEDFAVYYCQQYSTYLYTFGGGTKVEIKR
notes: Human IgG1-kappa produced in CHO cells
B3: antibody 12.0 (antibody, human IgG1, kappa, V domains shown)
VH: B1 VH with S28T, N44G, I48M, N54S, L70M, V72R, S109Y
VL: DIQLTQSPSFLSASVGDRVTITCRASQDVGTAVVWYQQKPGKAPKLLIDWASIRHTGVPSRFSGSGSGTEFTLTISSLQPEDFATYYCQQYSTYLYTFGGGTKLEIKR
notes: as for B2
B4: 10A3D6hum1.2 (antibody, human IgG1, V domains shown)
VH: B1 VH with N44G, I48M, L70M, V72R
VL: B1 VL
notes: as for B1
B5: antibody 13.4 (antibody, human IgG1, kappa, V domains shown)
VH: B1 VH with S28T, N44G, I48M, N54S, L70M, V72R, S109Y
VL: B2 VL with Y94W, L95P, Y96L
notes: as for B2
B6: antibody 13.6 (antibody, human IgG1, kappa, V domains shown)
VH: B1 VH with S28T, N44G, I48M, N54S, L70M, V72R, S109Y
VL: B2 VL with D28S, A32N, V33L, V34A, Y94W, L95P, Y96L
notes: as for B2
B7: antibody 11.57 (antibody, human IgG1, kappa, V domains shown)
VH: B1 VH with S28T, N44G, I48M, N54S, T55S, L70M, V72R, S109Y
VL: B3 VL with T31S, T56S
notes: as for B2
B8: antibody 12.3 (antibody, human IgG1, kappa, V domains shown)
VH: B1 VH with S28T, N44G, I48M, N54S, L70M, V72R, S109Y
VL: B3 VL with D28G, V29I, G30S, T31S, A32Y, V33L, V34A, D49Y, Y91L, L95P
notes: as for B2
B9: antibody 12.1.3 (antibody, human IgG1, kappa, V domains shown)
VH: B1 VH with S28T, N44G, I48M, N54S, L70M, V72R, S109Y
VL: B3 VL with D28G, V29I, T31S
notes: as for B2
B10: antibody 12.2 (antibody, human IgG1, kappa, V domains shown)
VH: B1 VH with S28T, N44G, I48M, N54S, L70M, V72R, S109Y
VL: B3 VL with D28G, V29I, G30S, T31S, A32Y, V33L, V34A
notes: as for B2
B11: antibody 13.5 (antibody, human IgG1, kappa, V domains shown)
VH: B1 VH with S28T, N44G, I48M, N54S, L70M, V72R, S109Y
VL: B2 VL with D28S, Y94W, L95P, Y96L
notes: as for B2
B12: antibody 11.45 (antibody, human IgG1, kappa, V domains shown)
VH: B1 VH with S28T, N44G, I48M, N54S, T55S, L70M, V72R, S109Y
VL: B3 VL with R24K
notes: as for B2
B13: antibody 11.41.1 (antibody, human IgG1, kappa, V domains shown)
VH: B1 VH with N44G, I48M, N54S, L70M, V72R, S109V
VL: B3 VL with R24K
notes: as for B2
B14: 10A3D6hum8.2 (antibody, human IgG1, V domains shown)
VH: B1 VH with N54A, S109V
VL: B1 VL
notes: as for B1
B15: antibody 11.12 (antibody, human IgG1, kappa, V domains shown)
VH: B1 VH with N44G, I48M, L70M, V72R, S109Y
VL: B3 VL with R24K, T85D, Y87F
notes: as for B2
B16: antibody 11.44.1 (antibody, human IgG1, kappa, V domains shown)
VH: B1 VH with N44G, I48M, N54S, T55S, L70M, V72R, S109V
VL: B3 VL with R24K
notes: as for B2
B17: antibody 11.54 (antibody, human IgG1, kappa, V domains shown)
VH: B1 VH with N44G, I48M, N54S, T55S, L70M, V72R, S109Y
VL: B3 VL with R24K, T31S, T56S
notes: as for B2
B18: antibody 11.29 (antibody, human IgG1, kappa, V domains shown)
VH: B1 VH with N44G, I48M, N54S, T55S, L70M, V72R
VL: B3 VL with R24K, T85D, Y87F
notes: as for B2
B19: antibody 11.27 (antibody, human IgG1, kappa, V domains shown)
VH: B1 VH with N44G, I48M, N54S, L70M, V72R
VL: B3 VL with R24K, T85D, Y87F
notes: as for B2
B20: antibody 11.55 (antibody, human IgG1, kappa, V domains shown)
VH: B1 VH with N44G, I48M, N54S, T55S, L70M, V72R, S109Y
VL: B3 VL
notes: as for B2

What follows are binders tested against T1, human KLRB1 expressed on CHO-hum-KLRB1 … (assay: cell-based or functional assay).

Binder	EC50 for ADCC (target cell lysis, LDH release) [pM]
B1	4.8
B2	8.3
B3	5.4
B4	5.8

These binders were tested against T2, human KLRB1 extracellular domain (ECD), … (assay: SPR (Biacore 8K), antibody fixed on chip, human KLRB1 ECD as analyte; second experiment).
Experimental: (§1) Various humanized antibodies derived from humanized variants of antibody 10A3D6 with human IgG1-kappa were produced in CHO cells and then assayed for binding against human KLRB1 extracellular domain (ECD) via surface plasma resonance (SPR). Human KLRB1 extracellular domain was amino acids 67-225 from human KLRB1 protein (SEQ ID NO: 1). […] Antibody was fixed to the chip and analyte of human KLRB1 extracellular domain (ECD) was flowed over the surface at 30 ul/min, with contact time 120 seconds and dissociation time 360 seconds. The results are shown from two separate experiments in Tables 20 and 21.

Binder	Kd [nM]	koff [s⁻¹]	kon [M⁻¹ s⁻¹]
B5	14.6	0.00217	149000
B2	0.444	0.000133	300000
B3	0.597	0.000145	243000
B6	44.8	0.00269	60000
B7	2.52	0.000308	122000
B8	68.8	0.00135	19700
B9	1.75	0.000248	141000
B10	1.54	0.000236	153000
B4	0.344	0.000107	310000
B11	20.3	0.00177	87300

What follows are binders tested against T2, human KLRB1 extracellular domain (ECD), … (assay: SPR (Biacore 8K), antibody fixed on chip, human KLRB1 ECD as analyte).
Experimental: as §1

Binder	Kd [nM]	koff [s⁻¹]	kon [M⁻¹ s⁻¹]
B12	1.26	0.000227	181000
B1	0.263	8.18e-05	311000
B13	0.414	0.000167	403000
B14	0.512	0.000171	335000
B15	0.275	0.00012	434000
B7	2.08	0.000308	148000
B16	1.09	0.000234	215000
B17	2.24	0.000315	141000
B18	0.743	0.000207	278000
B19	0.314	0.000123	391000
B4	0.279	0.000135	485000
B20	1.23	0.00022	180000

Molecular target: T1, human KLRB1 expressed on CHO-hum-KLRB1 …
Assay: cell-based or functional assay
Remark: another data set of the same source

Binder	Span (fitted span of the ADCC dose-response curve, % target cell lysis of CHO-K1/human KLRB1 cells with PBMCs, E:T=25:1)
B1	74.2 % Target Cell Lysis (axis; the table prints no unit)
B2	77.8 % Target Cell Lysis (axis; the table prints no unit)
B3	80.8 % Target Cell Lysis (axis; the table prints no unit)
B4	75 % Target Cell Lysis (axis; the table prints no unit)
